Results reported in IntAct's records for PubMed 17919502.

B1: Copper-transporting ATPase 2 (Homo sapiens), P35670 (parent)
chain: MPEQERQITAREGASRKILSKLSLPTRAWEPAMKKSFAFDNVGYEGGLDGLGPSSQVATSTVRILGMTCQSCVKSIEDRISNLKGIISMKVSLEQGSATVKYVPSVVCLQQVCHQIGDMGFEASIAEGKAASWPSRSLPAQEAVVKLRVEGMTCQSCVSSIEGKVRKLQGVVRVKVSLSNQEAVITYQPYLIQPEDLRDHVNDMGFEAAIKSKVAPLSLGPIDIERLQSTNPKRPLSSANQNFNNSETLGHQGSHVVTLQLRIDGMHCKSCVLNIEENIGQLLGVQSIQVSLENKTAQVKYDPSCTSPVALQRAIEALPPGNFKVSLPDGAEGSGTDHRSSSSHSPGSPPRNQVQGTCSTTLIAIAGMTCASCVHSIEGMISQLEGVQQISVSLAEGTATVLYNPSVISPEELRAAIEDMGFEASVVSESCSTNPLGNHSAGNSMVQTTDGTPTSVQEVAPHTGRLPANHAPDILAKSPQSTRAVAPQKCFLQIKGMTCASCVSNIERNLQKEAGVLSVLVALMAGKAEIKYDPEVIQPLEIAQFIQDLGFEAAVMEDYAGSDGNIELTITGMTCASCVHNIESKLTRTNGITYASVALATSKALVKFDPEIIGPRDIIKIIEEIGFHASLAQRNPNAHHLDHKMEIKQWKKSFLCSLVFGIPVMALMIYMLIPSNEPHQSMVLDHNIIPGLSILNLIFFILCTFVQLLGGWYFYVQAYKSLRHRSANMDVLIVLATSIAYVYSLVILVVAVAEKAERSPVTFFDTPPMLFVFIALGRWLEHLAKSKTSEALAKLMSLQATEATVVTLGEDNLIIREEQVPMELVQRGDIVKVVPGGKFPVDGKVLEGNTMADESLITGEAMPVTKKPGSTVIAGSINAHGSVLIKATHVGNDTTLAQIVKLVEEAQMSKAPIQQLADRFSGYFVPFIIIMSTLTLVVWIVIGFIDFGVVQRYFPNPNKHISQTEVIIRFAFQTSITVLCIACPCSLGLATPTAVMVGTGVAAQNGILIKGGKPLEMAHKIKTVMFDKTGTITHGVPRVMRVLLLGDVATLPLRKVLAVVGTAEASSEHPLGVAVTKYCKEELGTETLGYCTDFQAVPGCGIGCKVSNVEGILAHSERPLSAPASHLNEAGSLPAEKDAVPQTFSVLIGNREWLRRNGLTISSDVSDAMTDHEMKGQTAILVAIDGVLCGMIAIADAVKQEAALAVHTLQSMGVDVVLITGDNRKTARAIATQVGINKVFAEVLPSHKVAKVQELQNKGKKVAMVGDGVNDSPALAQADMGVAIGTGTDVAIEAADVVLIRNDLLDVVASIHLSKRTVRRIRINLVLALIYNLVGIPIAAGVFMPIGIVLQPWMGSAAMAASSVSVVLSSLQLKCYKKPDLERYEAQAHGHMKPLTASQVSVHIGMDDRWRDSPRATPWDQVSYVSQVSLSSLTSDKPSRHSAAADDDGDKWSLLLNGRDEEQYI

Variants of: B1
Conditions: with comd1_human COMMD1, Q8N668
Chain of comd1_human COMMD1, Q8N668 (Q8N668 whole entry): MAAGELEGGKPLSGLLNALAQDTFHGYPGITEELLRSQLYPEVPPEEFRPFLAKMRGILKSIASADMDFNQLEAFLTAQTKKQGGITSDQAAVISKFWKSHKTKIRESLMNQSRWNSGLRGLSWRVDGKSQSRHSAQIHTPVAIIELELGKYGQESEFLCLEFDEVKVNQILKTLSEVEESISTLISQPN

Variant | effect of a mutation on the interaction
G170V | increasing interaction strength
L641S | with no effect
G386V | increasing interaction strength
D642H | decreasing interaction strength
G626A | decreasing interaction strength
M645R | decreasing interaction strength
Y532H | increasing interaction strength
R616W | increasing interaction strength
G515V | increasing interaction strength
L492S | with no effect
G85V | increasing interaction strength
G284V | increasing interaction strength

The next lines start with the values.

effect of a mutation on the interaction | Variant
decreasing interaction strength | A604P
increasing interaction strength | E541K
increasing interaction strength | A486S
increasing interaction strength | R616Q
increasing interaction strength | G591D
increasing interaction strength | N41S
